Data: article PMC6749138

Legend:
[1] = target: HA-tagged HIV-1 Nef E63A (HIV-1 (NL4-3)) (UniProt P03406)
[2] = target: HA-tagged HIV-1 Nef E63A/F68A double mutant (HIV-1 (NL4-3)) (UniProt P03406)
[3] = target: HA-tagged HIV-1 Nef F68A (HIV-1 (NL4-3)) (UniProt P03406)

adaptor protein 1 (AP-1) complex (from UniProt Q9BXS5 1-423)
ratio of the GFP+ MHC-I- population of HEK293T cells transfected with Nef (flow cytometry; wild type 34.9%) [1]: 25.7%
ratio of the GFP+ MHC-I- population of HEK293T cells transfected with Nef (flow cytometry; wild type 34.9%) [2]: 19.2%
ratio of the GFP+ MHC-I- population of HEK293T cells transfected with Nef (flow cytometry; wild type 34.9%) [3]: 23.2%
